These results are taken from publication PMC4259466.

Assay [1] addresses ROCK2 (UniProt O75116). In words: GST-MLC2 pull-down from HeLa lysate. To be noted: sites Y118.
In assay [2] the target is MLC2 (UniProt P10916). In words: His-PKM2 bead pull-down of GST-MLC2. To be noted: reference: WT His-PKM2 without Aurora B; sites T45.

With “MLC2 (from UniProt P10916) GST-MLC2 Y118F”, the “binding against the reference” value in assay [1] (reference: GST-MLC2 wild type) is given as “lost”. Turning to “MLC2 (from UniProt P10916) GST-MLC2 with PKM2 and PEP”, the “binding against the reference” value in assay [1] (reference: GST-MLC2 with PKM2, no PEP) is given as “stronger”. For the substance “PKM2 (from UniProt P14618) WT His-PKM2 treated with Aurora B”, the “binding against the reference” value in assay [2] was “stronger”.
